Source: PMC5091667 (ACS chemical biology, 2016)
Blank lines part the entries; values can stand above or below the molecule they belong to. Bridges are numbered along the chain shown (N, C = ends).

How the values were obtained:
[1] = target: CD58 (Homo sapiens) (UniProt P19256); conditions: cited from earlier work
[2] = target: T1, CD58 protein (purified cell-adhesion domain, domain 1) (UniProt P19256 29-215); assay: SPR
T1 sequence (looked up): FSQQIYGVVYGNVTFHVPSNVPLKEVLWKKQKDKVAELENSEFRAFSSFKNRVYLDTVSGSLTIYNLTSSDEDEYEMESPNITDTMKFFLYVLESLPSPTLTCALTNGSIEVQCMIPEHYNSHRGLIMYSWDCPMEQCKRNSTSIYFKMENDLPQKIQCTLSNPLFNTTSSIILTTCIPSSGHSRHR

Molecule: CD2 (from UniProt P06729)
- Kd [1]: 10 µM

- Kd [2]: > 500 µM
Molecule: cyclo(CTKSIPPICFPDGR) (disulfide 1-9 (inferred)) [sunflower trypsin inhibitor SFTI-1]

- koff [2]: 0.00329 s⁻¹
- kon [2]: 224 M⁻¹ s⁻¹
B1: SFTI-a (peptide)
peptide: cyclo(CKASAPPSCYDGDD)
modifications: disulfide 1-9
SMILES: C[C@@H]1NC(=O)[C@H](CCCCN)NC(=O)[C@@H]2CSSC[C@H](NC(=O)[C@H](CO)NC(=O)[C@@H]3CCCN3C(=O)[C@@H]3CCCN3C(=O)[C@H](C)NC(=O)[C@H](CO)NC1=O)C(=O)N[C@@H](Cc1ccc(O)cc1)C(=O)N[C@@H](CC(=O)O)C(=O)NCC(=O)N[C@@H](CC(=O)O)C(=O)N[C@@H](CC(=O)O)C(=O)N2
